Test results: paper PMC4574351, “Tubulin cofactors and Arl2 are cage-like chaperones that regulate the soluble αβ-tubulin pool for microtubule dynamics” (eLife, 2015)

Molecular target: T1, Tubulin cofactor D (TBCD), S. cerevisiae Cin1p (S. cerevisiae, UniProt P40987 1-1014)
T1 construct: Tubulin cofactor D ortholog Cin1p, S. cerevisiae, full-length cDNA; TBCD is insoluble when expressed alone; also called Yeast TBCD (cin1p); His-TBCD; source: E. coli, co-expressed with TBCE and Arl2 from polycistronic vectors; co-purified as TBC-DEG (Ni-NTA, HiTrap SP, Superdex 200); not shown: 6xHis, N-terminal, kept
T1 sequence (looked up): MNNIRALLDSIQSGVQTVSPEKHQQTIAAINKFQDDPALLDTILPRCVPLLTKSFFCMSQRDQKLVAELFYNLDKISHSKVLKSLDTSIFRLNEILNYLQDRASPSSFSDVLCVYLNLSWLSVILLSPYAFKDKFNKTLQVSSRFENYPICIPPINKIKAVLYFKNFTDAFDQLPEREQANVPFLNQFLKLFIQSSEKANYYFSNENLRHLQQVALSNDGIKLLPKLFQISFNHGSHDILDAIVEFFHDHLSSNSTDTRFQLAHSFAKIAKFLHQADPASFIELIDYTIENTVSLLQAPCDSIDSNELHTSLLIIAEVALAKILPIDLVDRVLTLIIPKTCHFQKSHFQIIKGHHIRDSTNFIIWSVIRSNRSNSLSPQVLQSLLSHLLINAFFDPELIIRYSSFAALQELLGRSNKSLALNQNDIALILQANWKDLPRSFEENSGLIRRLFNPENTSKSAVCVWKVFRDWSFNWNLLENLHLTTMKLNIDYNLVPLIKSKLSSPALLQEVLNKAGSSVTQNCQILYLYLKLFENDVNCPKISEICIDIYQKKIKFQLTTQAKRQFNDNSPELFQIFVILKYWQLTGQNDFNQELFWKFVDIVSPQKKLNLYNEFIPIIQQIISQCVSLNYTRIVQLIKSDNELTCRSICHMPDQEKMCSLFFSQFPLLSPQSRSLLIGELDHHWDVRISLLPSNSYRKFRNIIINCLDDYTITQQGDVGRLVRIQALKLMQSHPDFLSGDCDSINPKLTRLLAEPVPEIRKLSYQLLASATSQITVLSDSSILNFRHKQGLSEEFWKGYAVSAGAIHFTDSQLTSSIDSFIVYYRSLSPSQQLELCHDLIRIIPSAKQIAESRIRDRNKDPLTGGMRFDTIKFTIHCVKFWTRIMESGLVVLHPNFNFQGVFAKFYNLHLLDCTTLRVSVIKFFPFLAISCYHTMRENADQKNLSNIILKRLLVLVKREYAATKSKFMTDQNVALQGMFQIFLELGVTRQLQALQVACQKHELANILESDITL
Experiment: SEC-MALS; WTC-03S5 column; purified TBC-DEG (subunits co-expressed and co-purified), αβ-tubulin, TBCC and their complexes; ternary complex with GDP·ALFx (wild type) or GTP (Q73L)
Settings: both partners purified

B1: Arl2 GTPase, S. cerevisiae Cin4p (enzyme, UniProt P39110 1-191, looked up)
chain: MGLLSIIRKQKLRDKEIRCLILGLDNSGKSTIVNKLLPKDEQNNDGIMPTVGFQIHSLMIKDVTISLWDIGGQRTLRPFWDNYFDKTQAMIWCIDVSLSMRFDETLQELKELINRDENRIGYECAVIVVLNKIDLVEDKSELHRRCLLVESELKCLFKPDIRIELVKCSGVTGEGIDNLRDRLVESCHFTQ
notes: ADP ribosylation factor-like 2 ortholog Cin4p, S. cerevisiae, full-length cDNA; Tags were not tolerated on either end of Arl2; Insoluble when expressed alone; also called Yeast Arl2 (cin4p); source: E. coli, co-expressed with TBCD and TBCE from polycistronic vectors; co-purified as TBC-DEG (Ni-NTA, HiTrap SP, Superdex 200)
With B1 the “stoichiometry N” value was 1.
